Laboratory results taken from the supplement of paper PMC10567573.

B1: LRRC45 (parent)
chain: DLSAANEKNLLLQNQVDELERKFR
B2: MLL5 (parent)
chain: EQIAERKRKMVSWEASSLGLVTAA

Variants of: B1
Assay: protein stability index of a GFP-peptide fusion (GPS, HEK-293T) (PSI 1-6); higher = more stable
Conditions: c terminus: a fixed tail appended
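Further: lentivirally expressed fusions sorted by FACS into six bins by GFP to DsRed ratio, PSI derived from sequencing read proportions per bin multiplied by bin number.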

Protein stability index: each site, then its substitutions
L19: C 4.16; H 4.12; M 4.03; F 3.76; D 5.16; T 4.34; K 3.92; Q 3.99; V 4.31; E 4.57
N6: G 4.82; P 4.62; S 4.92; T 4.4; K 4.51; I 3.27; Q 4.73; W 3.37; C 4.59
E18: Q 3.56; F 3.16; S 3.33; R 2.96; V 3.44; C 3.4; T 3.7; G 3.67; H 3.35; P 3.91; D 5.06; W 3.36
E7: S 3.74; P 4.31; H 3.94; L 2.96; A 3.5; C 3.78; G 3.43
R24: W 3.52; D 4.86; I 3.85; Y 4.17; V 3.71; T 4.14; Q 4.91; E 4.71; M 3.96; H 4.31; S 4.25
S3: L 3.51; N 4.07; Y 3.58; M 4.11; D 4.64; H 4.13; P 4.31; W 3.18
K8: C 3.83; H 4.06; L 3.6; P 4.35; G 4.17; I 3.43; W 3.6; A 4.62; R 4.15; Q 4.12; T 4.31; S 4.36; Y 3.63; F 3.85
L11: D 4.94; M 3.56; R 4.04; V 3.96; G 4.32; E 4.84; Q 4.31; F 4.13; I 4.46; Y 4.2; N 4.5
K22: M 3.34; A 4.27; T 3.71; D 4.31; Q 4.06; S 4.15; L 3.49; N 4.18; I 3.01
F23: I 3.6; A 5.13; E 5.34; V 3.91; W 3.13; T 4.39; L 4.33; M 4.63; H 3.98; P 4.77; D 5
A5: I 4.02; N 3.18; V 3.95; H 4.16; P 4; C 4.42; R 3.67
E20: T 3.43; S 3.8; R 3.06; V 3.75; Q 3.47; G 3.22; D 4.25; K 3.2; A 3.96; Y 2.86; W 2.91; N 3.27
D1: M 4.23; S 4.25; L 3.93; E 3.61; C 3.73; Q 4.21; N 4.4; V 4.34; P 4.17; W 3.75; Y 4.19; K 4.19
A4: T 4.06; N 3.29; S 4.05; I 3.81; W 3.78; R 4.07; D 4.67; K 4.36; Y 3.91; C 3.85; H 4.01; L 3.06; M 3.49; Q 3.82
L12: D 4.46; E 4.61; R 3.98; C 4.31; P 4.18; Y 4.08; Q 4.19; V 4.36; H 4; S 4.03
V16: H 4.08; A 4.48; I 4; Y 3.6; M 3.79; N 4.24; D 4.12; T 3.66; L 4.05; F 3.38; K 4.42
L2: V 3.89; A 5.21; Q 4.69; W 4.27; I 3.27; M 4.19; C 4.76; Y 4.85; H 4.61
N9: R 4.02; M 4.24; A 4.77; Y 3.67; G 3.93; T 4.59; Q 4.57; F 3.98; E 4.89; W 3.79; S 4.63; L 3.54; D 4.91
N14: M 3.54; C 4; H 3.62; Q 4.49; L 3.43; S 3.51; F 3.02; Y 3.65; T 3.81; D 4.54
R21: M 3.97; G 4.49; F 3.57; P 4.2; V 4.05; E 4.56; K 3.93; Y 4.14; H 4.22; L 3.74; I 3.55; C 3.74
Q15: A 3.57; H 4.04; E 4.7; T 3.35; P 3.71; Y 2.76; K 4.06; D 4.4; L 3.01; R 3.5; I 3.38
D17: Y 3.23; H 2.99; A 3.58; L 3.24; S 3.46; E 4.39; K 3.55; V 3.4; C 3.24; W 2.9
Q13: D 4.63; H 3.66; N 3.68; R 3.74; W 3.3; M 3.71; E 4.71; Y 3.42; C 4.03
L10: R 4.06; K 4; C 4.07; S 4.45; V 4.39; Q 4.51; Y 3.71; G 4.77

Variants of: B2
Assay: as above
Conditions: c terminus: a fixed tail appended

Protein stability index, by site and new letter:
A24: C 2.39; H 3.17; N 3.25; K 2.4; F 2.29; Y 2.1; Q 3.39; S 3.57; E 4.38; V 3.04; D 4.11
L20: C 3.71; W 2.42; P 3.72; V 3.37; H 3.54; I 3.77; S 4.99; N 3.62; T 3.87; Y 2.68; D 3.82; K 3.9; E 4.3; Q 3.47; F 3.35
A23: D 3.98; P 3.41; F 1.58; T 2.31; I 3.23; M 3.11; K 3.27; Q 2.31; C 3.12; W 2.08; N 2.31; Y 2.28; E 3.96; S 2.68; R 2.63
T22: N 3.21; F 1.83; V 3.58; K 2.54; H 2.85; Y 2.57; W 1.79; A 3.33; M 2.63; Q 3.73; I 1.62; E 3.63; D 3.63; L 2.18; S 2.92
G19: Y 1.84; S 3.84; T 3.25; R 3.16; H 2.68; V 2.9; W 1.74; K 3.09; N 2.95; Q 3.49; M 2.65
V21: T 3.62; G 3.4; E 2.73; A 3.23; L 2.76; F 2.38; H 2.82; N 3.22; D 3.55; R 2.96; C 3.05; S 3.68; W 2.86; Q 3.22; P 2.44; M 3.32; I 3.15
